As a reminder, the Kd is the equilibrium constant for the complex coming apart.

Data set [1] has as its target thrombin (UniProt P00734+P00734). In words: FP.
Data set [2] addresses T1, FOXM1 (UniProt Q08050).
T1 sequence: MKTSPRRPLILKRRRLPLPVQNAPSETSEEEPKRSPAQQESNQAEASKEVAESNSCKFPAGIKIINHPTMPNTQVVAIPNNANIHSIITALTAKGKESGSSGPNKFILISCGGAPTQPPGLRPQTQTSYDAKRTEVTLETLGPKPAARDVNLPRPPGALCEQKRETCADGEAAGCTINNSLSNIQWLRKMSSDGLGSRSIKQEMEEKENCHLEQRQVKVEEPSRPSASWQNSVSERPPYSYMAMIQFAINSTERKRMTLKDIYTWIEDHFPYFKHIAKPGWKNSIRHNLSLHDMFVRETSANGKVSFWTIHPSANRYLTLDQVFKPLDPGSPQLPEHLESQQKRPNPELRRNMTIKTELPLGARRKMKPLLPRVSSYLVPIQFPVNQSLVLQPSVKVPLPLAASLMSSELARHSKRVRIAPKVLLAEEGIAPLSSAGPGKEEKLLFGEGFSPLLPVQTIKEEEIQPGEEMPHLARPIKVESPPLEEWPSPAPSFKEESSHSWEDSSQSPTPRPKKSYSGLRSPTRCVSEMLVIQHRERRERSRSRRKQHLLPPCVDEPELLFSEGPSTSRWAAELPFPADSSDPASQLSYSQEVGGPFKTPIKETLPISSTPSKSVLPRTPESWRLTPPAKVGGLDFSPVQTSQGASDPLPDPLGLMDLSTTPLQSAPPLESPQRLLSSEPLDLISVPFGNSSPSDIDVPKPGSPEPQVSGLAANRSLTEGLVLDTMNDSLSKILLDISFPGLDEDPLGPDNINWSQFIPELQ
The following applies: PS; cited from earlier work.

For the sequence GGTTGGTGTGGTTGG [TBA(3)-2b], the dissociation constant (Kd) in data set [1] (T3 replaced by 5-ethynyl-dU clicked to inactivated N-acyl sulfonamide biotin warhead 2b) amounted to 395 nM.
Sequence GGTTGGTGTGGTTGG [TBA(9)-2b] gave a Kd in data set [1] (T9 replaced by 5-ethynyl-dU clicked to inactivated N-acyl sulfonamide biotin warhead 2b) of 520 nM.
Turning to “TCACTTCACACCGCATCTCTACGTCCGGTTGCGCTTTCCTTT [FBA]”, in data set [2], the Kd is 65 nM.

The record behind these values is patent US20240255495.
